Legend:
calmodulin [1] = biological target: calmodulin (UniProt P0DP23); assay: microscale thermophoresis, labelled SXkmer A with free calmodulin in solution
calmodulin [2] = biological target: calmodulin (UniProt P0DP23); assay: SPR, CaM immobilised, SXkmer A injected, BiaEvaluate fit

- Kd (calmodulin [1]): 140 nM
- koff (calmodulin [2]): 1e-06 s⁻¹
Substance: Loop calmodulin binder SXkmer A (KMRPGVN) (designed binder)

Reference: patent US20260234206A1
